B1: TPR t1 (parent)
chain: GACCAAUCUGCCCUCAGAGCUCGAGAACAUCUUCGGAUGCAGAGGAGGCAGGCUUCGGUGGCGCGAUAGCGCCAACGUCCUCAACCUCCAAUGCAUCCCACCACAUGAUGAUGCCUGAAGAGCCUUGGUUUUUUG

The variants in the data set derive from B1. Briefly: polymerase ribozyme fitness, log enrichment relative to wild type (log ratio); higher = more active; in vitro selection for triplet polymerase activity. The essentials:
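In triplicate, a single round of in vitro selection was run on each mutant library, PCR-built and transcribed, covering one subunit of a heterodimeric triplet polymerase ribozyme. Frozen incubation at −7 °C followed annealing with a biotinylated primer, partner subunit and triplets, and extended constructs were then gel-excised, streptavidin-captured and taken through RT-PCR. Fitness is the logarithm of genotype enrichment over wild-type enrichment, from inverse-variance-weighted replicate averages of Illumina-sequenced inputs and outputs. […] only genotypes with ≥10 input reads and ≥1 read per output were kept.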
Turning to G60U A103C U106G U125A, the “polymerase ribozyme fitness (log ratio)” value was -5.2.
On to A18C C40U C73U, for which the “polymerase ribozyme fitness (log ratio)” value is -2.05.
As to C101A C115A G120C, the “polymerase ribozyme fitness (log ratio)” value is -0.291.
With C12U U54G U55A G61A G110A A118C U129A the figure was -6.68.
With A18U C62U A84C G120U G135U the figure was -5.35; with A74C C89A U96A C115A, -3.51; with U14G G45C, -3.41.
With C62G G110U the figure was -2.94; with U14A C15A A41U G44A C82A U92G C123A, -5.11; with G10A C11A A18C G42C G44A C101A, -4.26.
On to C8G C89A, for which the “polymerase ribozyme fitness (log ratio)” value is -1.01.
With C114A G135U the figure was -1.88.
With U87A G128U the figure was -2.2; with U7G G71U, 0.698.
As for A18G A43U G71A, the “polymerase ribozyme fitness (log ratio)” value is -4.88.
With C13G G69U the figure was -0.536; with A43U U92C U112G, -2.71; with A2U A5C C13U G48A C70A, -4.35.
With C62U A95U A105U the figure was -3.17; with C89A U106A G113C C123G, -1.57; with C28U G63U, -3.07.
With A46U C62U C86A A100U C104A G110C U134G the figure was -5.64; with C15U U133G, -2.11; with G77U U78G C123A, -0.257.
Take C13U A37C G57U: the “polymerase ribozyme fitness (log ratio)” value is -0.0732.
With C12A C15A U132A, the “polymerase ribozyme fitness (log ratio)” value is -3.86.
With U21A G44U C97U G113A the figure was -2.33; with C12A C22A A46U C79U, -6.1.
As to C12A C49U G69C C80G C115G, the “polymerase ribozyme fitness (log ratio)” value was -8.79.
With C72G U106C the figure was -0.865.
Take C8G C22G U125G U131G: the “polymerase ribozyme fitness (log ratio)” value is -6.
Take U14A U30A A66U G69U U92G C94A G117C: the “polymerase ribozyme fitness (log ratio)” value was -6.34.
With G48U A50G U92C A108G the figure was -5.83.
In the case of C72U U81C U116A, the “polymerase ribozyme fitness (log ratio)” value is -3.5.
With A27C C94G the figure was -3.57.
With G48C G60U U106A G107C the figure was -6.48; with A84G C115U, -2.86.
With G42C A43U C86U U96C the figure was -2.55; with C88U U92A, -2.45.
For the variant G17A G44U C49U U55G, the “polymerase ribozyme fitness (log ratio)” value was -4.05.
With A5U U21G U55C G61U C79U C114A U126A the figure was -1.56.
With C79G C123G U133A the figure was 0.663; with U78A U87A, -0.201; with U106A U112A U129C, 0.363.
With U21C A46G C53A G71C C98U the figure was -6.73.
Regarding U21C G63A C82A C124G U133G, the “polymerase ribozyme fitness (log ratio)” value was -0.991.
With C56U C114G U131A the figure was -2.06.
With A41U A46U G61A the figure was -1.65; with C3A C20U C101A A105C C114U U131G, -2.47; with G10U C22A C72U U92G A105U A118G, -7.38.
With C22G U38A G61U C124U the figure was -3.08; with C15U A43U G48A A100C A111G, -5.15.
On to G61U C97G, for which the “polymerase ribozyme fitness (log ratio)” value was -4.15.
In the case of G52U A111C, the “polymerase ribozyme fitness (log ratio)” value is -2.18.
With A41U U78G C82U A91G A121C the figure was -1.41; with C20A C22U C49A U92A C115U, -7.22.
As for C62U U131C, the “polymerase ribozyme fitness (log ratio)” value is 0.107.
With A41C U92A the figure was -2.21; with A24G C85G, -2.32; with A26U A50U G57C, -4.64.
With C102A U106G the figure was -4.52.
With G58C C80A U96G the figure was -4.46.
C20U G63C A84C A105U: the “polymerase ribozyme fitness (log ratio)” value is -4.52.
For C22U C85A, the “polymerase ribozyme fitness (log ratio)” value is -6.28.
With G60A C97U G120C the figure was 0.712; with G93A C115U, -1.29.
With C8A G93A A108G the figure was -2.37; with G61A G93U A111G, 0.181; with G44U C49A A50C G71A, -5.27.
Turning to G60U U109G U125G U130G, the “polymerase ribozyme fitness (log ratio)” value was -5.39.
With U54A C72A C73U A91C C115U the figure was -4.35; with U96A G120U, -0.867; with U78C C94U U112C, 0.656.
For the variant G63U U78G G107U A111U U116C, the “polymerase ribozyme fitness (log ratio)” value was -6.
With C34G G44A A90G C101U A121U the figure was -5.28; with C13A C94U, -2.74; with C34A C73G U106A, -4.25.
Regarding C80U C98U C115A C124G, the “polymerase ribozyme fitness (log ratio)” value was -0.376.
With C88A U130A the figure was -2.14; with A103U A118U, -4.32; with U106A C114G U133C, -2.16.
With C11G G60U the figure was 0.25.
With U7G C8A G63U G65C the figure was -6.38; with A2C C11U C15U U55G A90G A121G, -0.451; with C11A A16G G23U G39C C76U A95C G113U C114G, -7.17.
For the variant C13U U55G A95U A111C A121U G127C, the “polymerase ribozyme fitness (log ratio)” value was -0.336.
With G110U G117A the figure was -2.69; with C97G G113C G122U, -5.4; with C28U G39A G61U, -2.23.
Take C15G C49U U106A: the “polymerase ribozyme fitness (log ratio)” value is -3.74.
As to C12G A43U C70A C79U C82A U96A, the “polymerase ribozyme fitness (log ratio)” value is -5.11.
As to G61U A100C U133G, the “polymerase ribozyme fitness (log ratio)” value was -1.29.
With U14A C88G C99U C123U U131G U134A the figure was -3.82; with A24G C28G G48U C64U, -6.05; with C8G A46G G110A, -0.456.
In the case of G48U G52U C102A, the “polymerase ribozyme fitness (log ratio)” value is -4.14.
Take A5G U9A A27G C53U U126A U133A: the “polymerase ribozyme fitness (log ratio)” value was -3.09.
With A50C A90C the figure was -2.1; with C8U A37U C56U A83C C97U C124A, -1.47; with C49U U109G, -5.61.
For C8U G36U G58C A91C U96C A111U A121U, the “polymerase ribozyme fitness (log ratio)” value is -5.93.
With G48C A103U G120A, the “polymerase ribozyme fitness (log ratio)” value is -6.04.
With C11A C40U the figure was -2.35.
With C64U G69U G128C the figure was -3.93; with A121U C124A, 2.1; with U9G C53A, 0.283.
With C31U G44C G60A the figure was -5.87.
In the case of C22A A27G G60C A83G, the “polymerase ribozyme fitness (log ratio)” value was -6.08.
With C20U G48U G57U G60A the figure was -2.57.
With U54A U55A A74G the figure was -0.235; with G60A U112A G113C, -1.56.
With A5U U87G U130C the figure was 0.627.
C12A A37C C40U G47A C73A: the “polymerase ribozyme fitness (log ratio)” value is -4.88.
In the case of C22G C70A, the “polymerase ribozyme fitness (log ratio)” value is -4.66.
Turning to G45C C73A U81A C88G, the “polymerase ribozyme fitness (log ratio)” value was -0.576.
With U9C A90C the figure was -0.197; with C72U U132G G135U, -0.759; with A41U A43U, -1.37.
With A95G A111G the figure was 0.572.
With G63C C85G C102A the figure was -2.51; with C15U C20U G42A A43C G113A, -1.99.
As to C49U C98U U125G, the “polymerase ribozyme fitness (log ratio)” value is -2.62.
With C15U A16C G93C C123U U126C, the “polymerase ribozyme fitness (log ratio)” value was -2.73.
With G61A C73A the figure was -0.202.
With C22G U54A the figure was -3.16; with C97U U109A, -2.09.
With C20U A43G G69C C88U U130A the figure was -5.74.
Turning to G61C U96A, the “polymerase ribozyme fitness (log ratio)” value was -2.71.
Turning to G17C C28U C85A G110A G120C, the “polymerase ribozyme fitness (log ratio)” value is -2.19.
Regarding U7G U106C, the “polymerase ribozyme fitness (log ratio)” value amounted to 1.03.
With C20A G117U U133A the figure was -4.77; with G63U G77C C124U, -0.341.
With A37G G77A U130G the figure was -1.16; with C28U G71C, -2.78; with G60A U129A, -0.603.
With A50C C88A, the “polymerase ribozyme fitness (log ratio)” value is -1.03.
With C79A C115G A118U the figure was -4.7; with C11A G93U, -1.93; with G71C C72G C123G, -5.34.
As to C13U G63C C76A U78A, the “polymerase ribozyme fitness (log ratio)” value is -6.73.
With A41U G58C C62A G117C U126A G128A the figure was -7.88; with A5G G36U G48A G61C G122U C123U, -1.93.
With G63C C72G the figure was -5.46; with G51A C62A G117U U134G, -5.73; with C20U A95G, -1.47.
With C86U U116C the figure was -0.139; with A6C C13U A37C G69U C98G, -4.9.
Turning to G51U G60U C79G C85A C114U G120U G127U, the “polymerase ribozyme fitness (log ratio)” value is -4.96.
With G39U C62U C85A A90G A119U C123G U125G the figure was -1.09.
With G48U C62A A91U C123U U125A the figure was -4.09.
With G71U G77C U126C the figure was -2.3.
With C20U C62A G93A U129A, the “polymerase ribozyme fitness (log ratio)” value is -4.93.
With G52U U129A the figure was -1.63.
With C11A G113A C114U U133G the figure was -5; with G17U G117A, -3.31; with C11G C82A, -0.254.
Take U9C C22G C31G U38G A121U: the “polymerase ribozyme fitness (log ratio)” value was -6.73.
With G61U U96G the figure was -0.881; with G42U A83C G127U, -2.25; with C72G C89A A90U, -2.32.
With C34A C56U the figure was -2.12.
In the case of C12G A46U C49A A95C, the “polymerase ribozyme fitness (log ratio)” value is -2.16.
With G60A G63C G110A G135C the figure was -6.16; with C28U A43U U59G C73U, -6.04.
With C4U G48U G52U C73U A90U C124G the figure was -2.07; with G61U U78G C94A U129A, -2.72.
With C20G U54G C73A C89G A100C, the “polymerase ribozyme fitness (log ratio)” value is -5.53.

(Values after the RNAGym collection of RNA variant scans (doi:10.1073/pnas.2313332121).)
